Laboratory results taken from paper PMC10691244, “The mechanism of Gαq regulation of PLCβ3-catalyzed PIP2 hydrolysis” (Proceedings of the National Academy of Sciences of the …, 2023).

Target: T1, Phospholipase Cβ3 (PLCβ3), wild type (UniProt Q01970 10-1234)
T1 construct: Phospholipase Cβ3; The CTD linker and distal CTD are disordered in the structures; also called wild-type PLCβ3
T1 sequence: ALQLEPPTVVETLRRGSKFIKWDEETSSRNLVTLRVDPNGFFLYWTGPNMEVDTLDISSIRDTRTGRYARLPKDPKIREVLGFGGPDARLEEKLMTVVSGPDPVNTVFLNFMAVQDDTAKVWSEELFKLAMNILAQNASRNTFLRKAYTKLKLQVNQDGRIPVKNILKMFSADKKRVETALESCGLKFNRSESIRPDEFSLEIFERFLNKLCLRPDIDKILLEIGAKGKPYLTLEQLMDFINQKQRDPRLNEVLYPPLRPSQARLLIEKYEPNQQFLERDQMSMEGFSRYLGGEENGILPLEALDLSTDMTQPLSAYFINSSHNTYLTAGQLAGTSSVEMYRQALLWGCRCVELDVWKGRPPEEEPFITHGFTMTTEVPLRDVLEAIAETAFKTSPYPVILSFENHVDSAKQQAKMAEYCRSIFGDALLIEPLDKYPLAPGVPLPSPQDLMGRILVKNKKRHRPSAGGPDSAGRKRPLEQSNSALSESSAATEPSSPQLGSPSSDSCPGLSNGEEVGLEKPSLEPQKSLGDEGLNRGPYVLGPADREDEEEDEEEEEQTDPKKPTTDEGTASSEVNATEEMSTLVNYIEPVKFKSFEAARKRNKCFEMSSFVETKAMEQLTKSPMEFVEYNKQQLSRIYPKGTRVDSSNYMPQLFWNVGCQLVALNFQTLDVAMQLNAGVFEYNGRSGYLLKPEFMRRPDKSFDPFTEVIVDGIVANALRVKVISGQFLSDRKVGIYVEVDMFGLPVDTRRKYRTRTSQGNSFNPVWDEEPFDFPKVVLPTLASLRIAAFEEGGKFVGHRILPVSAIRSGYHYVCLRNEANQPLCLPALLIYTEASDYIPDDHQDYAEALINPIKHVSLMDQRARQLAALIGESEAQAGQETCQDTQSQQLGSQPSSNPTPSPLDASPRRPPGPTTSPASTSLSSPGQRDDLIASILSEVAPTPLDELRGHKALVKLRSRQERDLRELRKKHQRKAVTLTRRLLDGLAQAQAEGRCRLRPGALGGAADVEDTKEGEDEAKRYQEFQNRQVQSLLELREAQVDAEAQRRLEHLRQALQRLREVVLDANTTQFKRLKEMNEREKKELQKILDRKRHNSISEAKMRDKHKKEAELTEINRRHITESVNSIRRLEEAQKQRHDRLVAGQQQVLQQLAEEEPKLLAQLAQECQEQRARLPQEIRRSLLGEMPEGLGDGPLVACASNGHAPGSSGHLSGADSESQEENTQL
Assay: cryo-EM structure; PLCβ3 mixed with wildtype Gαq bound to GDP-AlF4, then added to 2DOPE:1POPC:1POPS (wt:wt:wt) vesicles with reconstituted lipidated Gβγ; 3.4 Å
Conditions: both partners purified

stoichiometry N: 1
B1: Gαq, wild type, nonlipidated, bound to GDP-AlF4 (natural protein)
chain: MACCLSEEAKEARRINDEIERQLRRDKRDARRELKLLLLGTGESGKSTFIKQMRIIHGSGYSDEDKRGFTKLVYQNIFTAMQAMIRAMDTLKIPYKYEHNKAHAQLVREVDVEKVSAFENPYVDAIKSLWNDPGIQECYDRRREYQLSDSTKYYLNDLDRVADPAYLPTQQDVLRVRVPTTGIIEYPFDLQSVIFRMVDVGGQRSERRKWIHCFENVTSIMFLVALSEYDQVLVESDNENRMEESKALFRTIITYPWFQNSSVILFLNKKDLLEEKIMYSHLVDYFPEYDGPQRDAQAAREFILKMFVDLNPDSDKIIYSHFTCATDTENIRFVFAAVKDTILQLNLKEYNLV
notes: In the structures the N terminus is disordered until position 38; Construct limits, any chimeric N terminus, host and tags are described only in SI Appendix, Materials and Methods; also called wildtype Gαq; wild-type Gαq
